In assay [1] the target is Human Fc-OX40L (human) (UniProt P23510). Briefly: BIAcore, immobilized hFc-OX40L. (In SPR one partner is held on a chip, and binding of the other changes the refractive index at the surface.)
For assay [2] the target is unchanged. The assay is described as follows: cell-based or functional assay.

Human Fc-OX40L (human), sequence (P23510 51-183 limits assumed): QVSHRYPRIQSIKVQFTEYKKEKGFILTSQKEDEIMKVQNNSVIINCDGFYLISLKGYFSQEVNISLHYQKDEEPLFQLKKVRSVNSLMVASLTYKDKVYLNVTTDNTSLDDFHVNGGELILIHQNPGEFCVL

B1: Ab G (antibody, part only; not given: light chain, part only)
heavy: MEFGLSWIFLAAILKGVQCEVQLVESGGGLVKPGGSLRLSCAASGFTFSNAWMSWVRQAPGKGLEWIGRIKSKTEGGTTDYGAPVKGRFTISRDDSKNTLYLQMNSLKTEDTAVYSCTTDFLWFGEFPFDYWGQGTLVTVSSASTKGPSVFPLAPCSRSTSESTAALGCLVKDYFPEPVTVSWNSGALTSGVHTFPAVLQSSGLYSLSSVVTVPSSNFGTQTYTCNVDHKPSNTKVDKTVERKCCVECPPCPAPPVAGPSVFLFPPKPKDTLMISRTPEVTCVVVDVSHEDPEVQFNWYVDGVEVHNAKTKPREEQFNSTFRVVSVLTVVHQDWLNGKEYKCKVSNKGLPAPIEKTISKTKGQPREPQVYTLPPSREEMTKNQVSLTCLVKGFYPSDIAVEWESNGQPENNYKTTPPMLDSDGSFFLYSKLTVDKSRWQQGNVFSCSVMHEALHNHYTQKSLSLSPGK
The EC50 is the concentration giving half of the maximal effect. A lower EC50 goes with higher potency in that assay. For B1, the EC50 with Human Fc-OX40L (human) [1] turned out to be 0.4 nM. Moreover, in the assay with Human Fc-OX40L (human) [2], the Costimulation Value (IC50), T cell proliferation (3H-thymidine) is 3.2 and the IL-2 Inhibition (IC50 [nM]) was 0.22 nM.

Values taken from patent publication US20060002929A1.
